± gives the uncertainty stated by the source.
Test: amyloid nucleation score (Sup35N fusion, yeast selection) (log enrichment); library NNK3; higher = more nucleation; inactive = no reads after selection
In short: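 Growth for 7 days at 30°C on medium lacking adenine and uracil followed a 24-hour induction with 100 μM copper sulfate of psi-negative yeast expressing peptides of 20 random codons fused to Sup35N. Input and output plasmid inserts were sequenced with Illumina, and sequences with under 100 input reads were excluded. Nucleation score is the DiMSum log enrichment of output over input reads, centred on the mode score of non-aggregating sequences.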

Substance | amyloid nucleation score
LPAWKKTAFYFRYHGPFVRS | inactive
LPKCQLLLRRCRV | inactive
LPSVDVRKTI | inactive
LPTIQILRQNTVPIGVHHKF | inactive
LQDMPGNGFPVWVDISFSSY | inactive
LQGVFRMSQISG | inactive
LQMYWIIV | inactive
LQNVGD | inactive
LQRYRPADMRVGASSSGNTK | 0.121 ± 1
LQSCKATPRLCFEATLGRGV | -0.992 ± 2.5
LQSEPVLSDTSMSGVVASYF | inactive
LQYYLRPRFNLRLYGAIPPA | inactive
LRCTVRSLAKFVFYRFKTGG | inactive
LRFAYTFFWYVRFRVRICFN | inactive
LRFMRSI | inactive
LRFRAQNTYEGPYTVGPVWS | inactive
LRFRLNSRVYTTHNIKVPSL | inactive
LRGDGLMIVIVVWCIYGYLC | inactive
LRGFMISSWDFFADGSDVRL | inactive
LRGNECRPGVELPVTVSKFR | inactive
LRGYLHWLCSECSVLVSAVA | inactive
LRHGSSEFNYGNFFLCLFEQ | 2.56 ± 0.075
LRKGVRLLFSHHVIIK | inactive
LRLNKLCEVFAPLTSVLAGT | inactive
LRLQIEKTAKNMFEYKAG | inactive
LRLVGLLMGNIFFELYGDLC | inactive

Substance | amyloid nucleation score
LRNSHGDDNVIRLVNNCNSV | inactive
LRPRYSAYILQSRR | inactive
LRQNTYMLLSGNIVCRIVSF | inactive
LRRLELIGLECNLTGSRAVP | inactive
LRRMDQMANDLFAI | inactive
LRRQTSHKS | inactive
LRSLLNQVMSYSMYILYNSQ | inactive
LRSVFSRYFGQVHEFSRQRY | inactive
LRWFFVHPQWIRGCGLAMLS | inactive
LRYNRDVTS | inactive
LSAAFYDMETIGWISGSWVN | inactive
LSCHETCLVISGLCMLMMRL | inactive
LSEMANDHEHVYSYRKAHYM | -0.626 ± 0.8
LSEWMSESGNFEFCVASLYR | inactive
LSFFGSYSSSRLF | 1.43 ± 0.11
LSGPMRYELCMRLGSGLNYE | inactive
LSGSLTTISIITGGVDCD | inactive
LSGSRTRSRFPDCLNCIS | inactive
LSKFFRWV | inactive
LSKHEAGTCRLVNDRTHYKA | inactive
LSLCRNKSIKWVFSLMEIL | inactive
LSLKNFMSSFSSLWCGWSDD | 0.689 ± 0.29
LSLWMGVEDFVLCGSVNTSR | inactive
LSMCAVFDRYLWVGSGDITY | inactive
LSMTGV | inactive
LSNDYCLRWVFMFKVMIRCD | inactive

Substance | amyloid nucleation score
LSNIICSCQLCWACPSLSVM | 2.47 ± 0.057
LSNLRGYNH | inactive
LSPWVSMILVKFKLHLYLRR | inactive
LSSLYLCCYACPNMLLI | 1.58 ± 0.11
LSSSGIMFCFFVDGLRSLV | inactive
LSTIIHDFIGCCAVNAQLIG | inactive
LSTQNRISASREMMDTDILG | 0.8 ± 0.13
LSYGFLGDRYVLHGCLMYFP | inactive
LSYGRGVTVLYVLWSYFISR | inactive
LSYQDVWGSYGICEGSVWYS | inactive
LTAVLLTPYSLFGFALWWFV | -0.487 ± 1.4
LTEMVLPLVHHLKTWSFVQE | inactive
LTFCVSMKCKIW | inactive
LTINDLCGFVKWLRTNCNVS | inactive
LTLITPPTRS | inactive
LTMVWDNIAMYMHWHMTTPI | inactive
LTNCRHSWWEDTTYSMWEVQ | inactive
LTRFRDIRFLINKNGACKEW | -0.213 ± 0.71
LTSSEQDAITLTTCGISECA | inactive
LTTICS | inactive
LVADSDRMNVTLRFTVSYCS | inactive
LVCFARVRKMEAEAFMKLVW | 0.64 ± 0.26
LVDLSRSISKSPMQKYRF | inactive
LVEIVLYWSRVWYWTRGSNV | inactive
LVEVDDASNIDCEAAYCKWY | inactive
LVFGLLLS | inactive

Source: the supplement of paper PMC12042874
